Results on 40 molecules are retold here after patent US20250026849A1 (ARCELLX, published 2025).

Sequences and labels used below:
B1: D-domain SEQ ID NO: 340 (designed binder)
chain: MGSWIEFNMRVLAIEDRLWALGGSEAELAAFEKEIAAFESELQAYKGKGNPEVESLRYEACLDPWSSAAYRHN
B2: D domain SEQ ID NO: 763 (designed binder)
chain: MGSWWEFEDRLMAIYDRLYALGGSEAELAAFEKEIAAFESELQAYKGKGNPEVEYLRAEAALIRETLQAYRHN
B3: D domain SEQ ID NO: 764 (designed binder)
chain: MGSWFEFEDRLYAIEDRLYALGGSEAELAAFEKEIAAFESELQAYKGKGNPEVEYLRWGAATIRDELQAYRHN
B4: D domain SEQ ID NO: 732 (designed binder)
chain: MGSWYEFYDRLSAIYARLQALGGSEAELAAFEKEIAAFESELQAYKGKGNPEVEDLRWYAADIRYMLQAYRHN
B5: D domain SEQ ID NO: 737 (designed binder)
chain: MGSWKEFDNRLYAIEDRLRALGGSEAELAAFEKEIAAFESELQAYKGKGNPEVEHLRWYAADIRMILQAYRHN
B6: D domain SEQ ID NO: 735 (designed binder)
chain: MGSWEEFYDRLGAIFARLHALGGSEAELAAFEKEIAAFESELQAYKGKGNPEVEDLRWYAADIRMILQAYRHN
B7: D domain SEQ ID NO: 734 (designed binder)
chain: MGSWNEFYDRLSAIYFRLQALGGFEAELAAFEKEIAAFESELQAYKGKGNPEVEHLRWYAADIRMILQAYRHN
B8: D domain SEQ ID NO: 736 (designed binder)
chain: MGSWVEFYDRLHAIYFRLLALGGSEAELAAFEKEIAAFESELQAYKGKGNPEVEDLRWYAADIRLVLQAYRHN
B9: D domain SEQ ID NO: 769 (designed binder)
chain: MGSWFEFVDRLEAIEMRLFALGGSEAELAAFEKEIAAFESELQAYKGKGNPEVELLRWRAAMIRYDLQAYRHN
B10: HER2-binding D domain SEQ ID NO: 809 (designed binder)
chain: MGSWYEFRWRLHAIWLRLGALGGSEAELAAFEKEIAAFESELQAYKGKGNPEVEWLRQDAAQIRYILQAYRHN
notes: also called eb08
B11: HER2-binding D domain SEQ ID NO: 813 (designed binder)
chain: MGSWLVFKDELAGIKNYLEALGGSEAELATFEQDIAWFEQWLQNYKGKGNPEVEALRKEAAAIRDELQAYRHN
B12: HER2-binding D domain SEQ ID NO: 825 (designed binder)
chain: MGSWVEFWIRLNAIKYRLLALGGSEAELAAFEKEIAAFESELQAYKGKGNPEVEKLRQDAADIRELLQAYRHN
B13: HER2-binding D domain SEQ ID NO: 826 (designed binder)
chain: MGSWTEFWWRLSAIVYRLNALGGSEAELAAFEKEIAAFESELQAYKGKGNPEVEELRDMAADIRSLLQAYRHN
B14: HER2-binding D domain SEQ ID NO: 827 (designed binder)
chain: MGSWWEFYLRLRAISYRLQALGGSEAELAAFEKEIAAFESELQAYKGKGNPEVEGLRQDAAEIRKLLQAYRHN
B15: HER2-binding D domain SEQ ID NO: 814 (designed binder)
chain: MGSWKTFKIELAGIKLELEALGGSEAELAGFENAIAQFESSLQYYKGKGNPEVEALRKEAAAIRDELQAYRHN
notes: also called eb04
B16: HER2-binding D domain SEQ ID NO: 828 (designed binder)
chain: MGSWWEFHVRLRAIEYRLEALGGSEAELAAFEKEIAAFESELQAYKGKGNPEVEQLRLIAANIRHLLQAYRHN
B17: HER2-binding D domain SEQ ID NO: 840 (designed binder)
chain: MGSWWEFHIRLRAIKYRLYALGGSEAELAAFEKEIAAFESELQAYKGKGNPEVEDLRILAAEIRAQLQAYRHN
B18: HER2-binding D domain SEQ ID NO: 831 (designed binder)
chain: MGSWWEFQVRLAAIEYRLKALGGSEAELAAFEKEIAAFESELQAYKGKGNPEVENLRQLAAHIRSVLQAYRHN
B19: HER2-binding D domain SEQ ID NO: 829 (designed binder)
chain: MGSWWEFHVRLKAIEYRLLALGGSEAELAAFEKEIAAFESELQAYKGKGNPEVEDLRYIAANIRQLLQAYRHN
B20: HER2-binding D domain SEQ ID NO: 832 (designed binder)
chain: MGSWWEFQVRLSAIEYRLTALGGSEAELAAFEKEIAAFESELQAYKGKGNPEVEELRQKAARIRSLLQAYRHN
B21: HER2-binding D domain SEQ ID NO: 811 (designed binder)
chain: MGSWWGFKVNLAWIKWKLEALGGSEAELAYFELWIANFEHSLQEYKGKGNPEVEALRKEAAAIRDELQAYRHN
B22: HER2-binding D domain SEQ ID NO: 819 (designed binder)
chain: MGSWFEFNIRLHAIEYRLKALGGSEAELAAFEKEIAAFESELQAYKGKGNPEVEELRNYAASIRKLLQAYRHN
B23: HER2-binding D domain SEQ ID NO: 820 (designed binder)
chain: MGSWFEFEIRLRAIEYRLSALGGSEAELAAFEKEIAAFESELQAYKGKGNPEVEKLRELAAEIRYALQAYRHN
B24: HER2-binding D domain SEQ ID NO: 833 (designed binder)
chain: MGSWWEFNIRLHAIDYRLKALGGSEAELAAFEKEIAAFESELQAYKGKGNPEVELLREKAAQIRAQLQAYRHN
notes: also called eb09
B25: HER2-binding D domain SEQ ID NO: 821 (designed binder)
chain: MGSWFEFKIRLYAIQYRLSALGGSEAELAAFEKEIAAFESELQAYKGKGNPEVEELRNLAAEIRHSLQAYRHN
B26: HER2-binding D domain SEQ ID NO: 834 (designed binder)
chain: MGSWWEFRVRLEAIDYRLKALGGSEAELAAFEKEIAAFESELQAYKGKGNPEVEYLRMKAATIRAILQAYRHN
notes: also called eb06
B27: HER2-binding D domain SEQ ID NO: 823 (designed binder)
chain: MGSWSEFWFRLHAILYRLQALGGSEAELAAFEKEIAAFESELQAYKGKGNPEVETLRDAAAEIRVALQAYRHN
B28: HER2-binding D domain SEQ ID NO: 815 (designed binder)
chain: MGSWWEFKVRLSAIQYRLYALGGSEAELAAFEKEIAAFESELQAYKGKGNPEVEALREQAALIRTILQAYRHN
B29: HER2-binding D domain SEQ ID NO: 824 (designed binder)
chain: MGSWIEFWVRLNAILYRLYALGGSEAELAAFEKEIAAFESELQAYKGKGNPEVEALRDSAAEIRRWLQAYRHN
B30: HER2-binding D domain SEQ ID NO: 839 (designed binder)
chain: MGSWWEFNMRLSAIKYRLYALGGSEAELAAFEKEIAAFESELQAYKGKGNPEVEILRRLAADIRERLQAYRHN
notes: also called eb10
B31: HER2-binding D domain SEQ ID NO: 816 (designed binder)
chain: MGSWWEFHIRLHAINYRLAALGGSEAELAAFEKEIAAFESELQAYKGKGNPEVEALRELAAKIRGDLQAYRHN
B32: HER2-binding D domain SEQ ID NO: 818 (designed binder)
chain: MGSWWEFKIRLYAIEYRLNALGGSEAELAAFEKEIAAFESELQAYKGKGNPEVEALRAKAAQIRYNLQAYRHN
B33: HER2-binding D domain SEQ ID NO: 838 (designed binder)
chain: MGSWWEFNVRLSAIRYRLLALGGSEAELAAFEKEIAAFESELQAYKGKGNPEVEDLRASAAQIRAMLQAYRHN
B34: HER2-binding D domain SEQ ID NO: 817 (designed binder)
chain: MGSWWEFQVRLRAIQYRLNALGGSEAELAAFEKEIAAFESELQAYKGKGNPEVEYLRGLAAQIRFDLQAYRHN
B35: HER2-binding D domain SEQ ID NO: 822 (designed binder)
chain: MGSWWEFKVRLRAIEYRLSALGGSEAELAAFEKEIAAFESELQAYKGKGNPEVEELRVLAASIRIHLQAYRHN
B36: HER2-binding D domain SEQ ID NO: 835 (designed binder)
chain: MGSWYEFDIRLEAIKYRLSALGGSEAELAAFEKEIAAFESELQAYKGKGNPEVEYLRKKAAVIRSMLQAYRHN
B37: HER2-binding D domain SEQ ID NO: 837 (designed binder)
chain: MGSWWEFNVRLQAIKYRLSALGGSEAELAAFEKEIAAFESELQAYKGKGNPEVEDLRKTAAHIRWQLQAYRHN
B38: HER2-binding D domain SEQ ID NO: 836 (designed binder)
chain: MGSWWEFRIRLEAIWYRLHALGGSEAELAAFEKEIAAFESELQAYKGKGNPEVEDLRIFAANIRSKLQAYRHN
B39: HER2-binding D domain SEQ ID NO: 810 (designed binder)
chain: MGSWHEFLRRLLAIEMRLYALGGSEAELAAFEKEIAAFESELQAYKGKGNPEVEHLRVRAASIRQMLQAYRHN
notes: also called eb05
B40: HER2-binding D domain SEQ ID NO: 812 (designed binder)
chain: MGSWVNFKTHLARIKVHLEALGGSEAELALFEHDIANFEQVLQQYKGKGNPEVEALRKEAAAIRDELQAYRHN

For one assay, the target named is T1, CD123 (Homo sapiens (Human), UniProt P26951 19-305, limits assumed).
T1 sequence: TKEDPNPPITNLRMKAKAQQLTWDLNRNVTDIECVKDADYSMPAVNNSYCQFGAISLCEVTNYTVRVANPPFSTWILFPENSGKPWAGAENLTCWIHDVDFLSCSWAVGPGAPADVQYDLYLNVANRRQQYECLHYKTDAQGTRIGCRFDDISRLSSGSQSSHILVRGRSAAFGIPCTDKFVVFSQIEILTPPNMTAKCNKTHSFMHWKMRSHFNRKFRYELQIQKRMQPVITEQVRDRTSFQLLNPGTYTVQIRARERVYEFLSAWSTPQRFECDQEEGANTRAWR
Description: ELISA, format not described. Also noted: unit not given here. On the technique in general: An ELISA detects its analyte on a solid surface through an enzyme-linked reagent.
With B1, the ELISA_avg stood at 3.2.

In another assay the target is T2, CD123 (Homo sapiens (Human), UniProt P26951 19-305, limits assumed).
T2 construct: also called CD123-Signal
T2 sequence: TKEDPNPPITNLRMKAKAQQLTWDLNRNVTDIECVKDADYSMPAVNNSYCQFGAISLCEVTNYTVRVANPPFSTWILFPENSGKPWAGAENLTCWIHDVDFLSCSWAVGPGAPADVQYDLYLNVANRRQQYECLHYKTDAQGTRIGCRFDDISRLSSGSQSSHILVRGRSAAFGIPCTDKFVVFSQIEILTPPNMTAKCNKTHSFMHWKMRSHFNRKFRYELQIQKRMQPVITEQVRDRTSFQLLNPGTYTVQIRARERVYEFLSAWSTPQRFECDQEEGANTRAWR
Briefly: ELISA, format not described. Also noted: unit not given here.
B2 had an ELISA_avg of 15.3.

As for B3, the ELISA_avg was 4.7.

For the molecule B4, the ELISA_avg was 5.3.

B5: the ELISA_avg is 3.9.

Regarding B6, the ELISA_avg came out at 3.9.

As for B7, the ELISA_avg was found to be 9.

With B8, the ELISA_avg is 4.8.

In turn, B9 displayed an ELISA_avg of 7.1.

The next assay has as its target T3, HER2 (human, UniProt P04626 23-652).
T3 construct: The ELISA is not described; also called ERBB2; CD340
Briefly: ELISA, format not described. Also noted: unit not given here.
Regarding B10, the ELISA_avg turned out to be 7.18.

In turn, B11 registered an ELISA_avg of 3.28.

In the case of B12, the ELISA_avg was 10.6.

In turn, B13 returned an ELISA_avg of 5.76.

The molecule B14 had an ELISA_avg of 5.1.

For the molecule B15, the ELISA_avg amounted to 4.95.

B16 showed an ELISA_avg of 5.48.

Turning to B17, the ELISA_avg amounted to 14.8.

B18: the ELISA_avg is 6.33.

With B19, the ELISA_avg stood at 4.56.

As for B20, the ELISA_avg worked out at 9.61.

For B21, the ELISA_avg came to 8.69.

B22 had an ELISA_avg of 7.86.

On to B23, for which the ELISA_avg worked out at 7.75.

Turning to B24, the ELISA_avg amounted to 9.75.

Turning to B25, the ELISA_avg was determined as 13.1.

In turn, B26 showed an ELISA_avg of 6.82.

B27 returned an ELISA_avg of 14.8.

Turning to B28, the ELISA_avg is 5.17.

For B29, the ELISA_avg was 3.91.

B30 gave an ELISA_avg of 3.08.

Take B31: the ELISA_avg is 11.9.

In turn, B32 displayed an ELISA_avg of 4.49.

Consider B33, for which the ELISA_avg came out at 6.73.

B34 came in with an ELISA_avg of 14.4.

B35: the ELISA_avg was found to be 10.1.

In turn, B36 showed an ELISA_avg of 5.35.

B37 had an ELISA_avg of 5.23.

For the molecule B38, the ELISA_avg stood at 8.04.

Take B39: the ELISA_avg is 8.15.

On to B40, for which the ELISA_avg worked out at 7.91.
